Measurements as given in patent publication US11447809B2, “Evolution of tRNA synthetases” (President and Fellows of Harvard College, priority 2017, dated 2022).
Residue numbers refer to the chain shown, from its start. Where two headings read alike, the source gives them in different places.

Legend:
[1] = system: sfGFP(Asn39TAG) expressed in BL21 star DE3 cells; test: ESI-MS analysis of purified sfGFP(Asn39TAG) for amino acid incorporated; format: cell-based, E. coli
Method: Expression of His-tagged sfGFP was performed using the plasmids, cell strains, and antibiotic concentrations described in the methods for sfGFP assays. Saturated overnight cultures were prepared from single colonies of cotransformed cells, which were diluted 1,000-fold into 300 mL of LB media containing 1 mM ncAA where denoted and were grown while shaking at 230 rpm at 37° C. Once the cultures utilizing a pDB070 plasmid grew to a cell density of A600=0.3, AARS expression was induced by supplementing with anhydrotetracycline (ATc) to a final concentration of 200 ng/mL, and incubation was continued. […] Once cultures grew to a cell density of A600=0.5, sfGFP expression was induced by supplementation with a final concentration of 1 mM isopropyl-β-D-thiogalactosidase (IPTG) for cultures utilizing a pET28b(+) plasmid or a final concentration of 1 mM arabinose for cultures utilizing a pBAD plasmid. Incubation with shaking at 37° C. continued for an additional 16 h after induction of sfGFP expression. Cells were harvested by centrifugation at 5,000 g for 10 min at 4° C., and the resulting pellets were resuspended in B-PER II Bacterial Protein Extraction Reagent (Thermo Fisher Scientific) containing EDTA-free protease inhibitor cocktail (Roche). The soluble fraction of the cell lysates were diluted by an equal volume of equilibration buffer (20 mM Tris (pH 7.4), 10 mM imidazole, 300 mM NaCl) and were separately loaded onto a column containing 2 mL of HisPur Ni-NTA resin (Thermo Fisher Scientific) that had been pre-washed with two bed-volumes of equilibration buffer. […]
Purified protein samples were diluted to 10 μM in dialysis buffer lacking reducing agent or glycerol prior to analysis on an Agilent 6220 ESI-TOF mass spectrometer equipped with an Agilent 1260 HPLC. […] Data was analyzed using Agilent MassHunter Qualitative Analysis software (B.06.00, Build 6.0.633.0 with Bioconfirm). […]

tRNACUA^Tyr/Opt = test: Aminoacylation assay of MjTyrRS variants (32P-labeled tRNA, nuclease P1/TLC); format: biochemical; conditions: for Relative catalytic efficiency: relative to p-NFRS with p-NF
Method: (§1) The genes of chPylRS variants and MjTyrRS variants were cloned into pET15a and transformed into BL21(DE3) (New England Biolabs) cells for expression. Cells were grown in 500 mL of LB media supplemented with 100 m/mL ampicillin at 37° C. to an A600 of 0.6-0.8, and protein expression was induced by addition of 0.5 mM IPTG (chPylRS variants) or 1 mM IPTG (MjTyrRS variants). Cells were incubated at 30° C. for an additional 6 h (chPylRS variants) or 4 h (MjTyrRS variants) and harvested by centrifugation at 5,000 g for 10 min at 4° C. The cell pellet was resuspended in 15 mL of lysis buffer (50 mM Tris (pH 7.5), 300 mM NaCl, 20 mM imidazole), and cells were lysed by sonication. The crude extract was centrifuged at 20,000 g for 30 min at 4° C. The soluble fraction was loaded onto a column containing 2 mL of Ni-NTA resin (Qiagen) previously equilibrated with 20 mL of lysis buffer. The column was washed with 20 mL of lysis buffer. The bound protein was then eluted with 2 mL of 50 mM Tris (pH 7.5), 300 mM NaCl, 300 mM imidazole. The purified protein was dialyzed with 50 mM HEPES-KOH (pH 7.5), 50 mM KCl, 1 mM DTT and 50% glycerol and stored at −80° C. for further studies.
(§2) Template plasmid containing the tRNA^Pyl or tRNACUA^Tyr/Opt gene was purified with the plasmid maxi kit (Qiagen). The plasmid containing tRNA^Pyl (100 μg) was digested with BstNI (New England Biolabs). The tRNACUA^Tyr/Opt gene was amplified by PCR. The BstNI digested template DNA or PCR product was purified by phenol chloroform extraction, followed by ethanol precipitation and dissolved in double distilled water. A His-tagged T7 RNA polymerase was purified over a column of Ni-NTA resin according to manufacturer's instructions (Qiagen). The transcription reaction (40 mM Tris (pH 8); 4 mM each of UTP, CTP, GTP, and ATP at pH 7.0; 22 mM MgCl2; 2 mM spermidine; 10 mM DTT; 6 μg pyrophosphatase (Roche Applied Science); 60 m/mL of DNA template, approximately 0.2 mg/mL T7 RNA polymerase) was performed in 10 mL reactions overnight at 37° C. The tRNA was purified on 12% denaturing polyacrylamide gel containing 8 M urea and TBE buffer (90 mM Tris, 90 mM boric acid, 2 mM EDTA). UV shadowing was used to illuminate the pure tRNA band, which was excised and extracted three times with 1M sodium acetate pH 5.3 at 4° C. The tRNA extractions were then ethanol precipitated, dissolved in RNase-free distilled water, pooled, and finally desalted using a Biospin 30 column (BioRad). The tRNA was refolded by heating to 100° C. for 5 min and slow cooling to room temperature. At 65° C., MgCl2 was added to a final concentration of 10 mM to aid folding. A His-tagged CCA adding enzyme was purified over column of Ni-NTA resin according to manufacturer's instructions (Qiagen). 16 μM refolded tRNA in 50 mM Tris (pH 8.0), 20 mM MgCl2, 5 mM DTT, and 50 μM NaPPi was incubated at room temperature for 1 h with approximately 0.2 mg/mL CCA-adding enzyme and 1.6 μCi/μL of (α-^32P)-labeled ATP (PerkinElmer). The sample was phenol/chloroform extracted and then passed over a Bio-spin 30 column (Bio-Rad) to remove excess ATP.
(§3) A 20 μL aminoacylation reaction contained the following components for chPylRS variants: 50 mM HEPES-KOH (pH 7.2), 25 mM KCl, 10 mM MgCl2, 5 mM DTT, 10 mM ATP, 25 μg/mL pyrophosphatase (Roche Applied Science), 10 mM amino acids, 500 nM PylRS variants, 5 μM unlabeled tRNA^Pyl, and 100 nM ^32P-labeled tRNA^Pyl. A 20 μL aminoacylation reaction contained the following components for MjTyrRS variants: 50 mM Tris-HCl (pH 7.5), 1 mM DTT, 10 mM MgCl2, 10 mM ATP, 20 μM unlabeled tRNACUA^Tyr/Opt, 3 μM ^32P-labeled tRNACUA^Tyr/Opt, 2 μM MjTyrRS variants. […]

tRNA^Pyl = test: Aminoacylation assay of chPylRS variants (32P-labeled tRNA, nuclease P1/TLC); format: biochemical
Method: as §1, §2, §3

B1: p-NFRS: previously evolved MjTyrRS variant charging p-nitro-L-phenylalanine; SEQ ID NO: 18, 22 (protein)
chain: MDEFEMIKRNTSEIISEEELREVLKKDEKSALIGFEPSGKIHLGHYLQIKKMIDLQNAGFDIIILLADLHAYLNQKGELDEIRKIGDYNKKVFEAMGLKAKYVYGSSFQLDKDYTLNVYRLALKTTLKRARRSMELIAREDENPKVAEVIYPIMQVNPLNYEGVDVAVGGMEQRKIHMLARELLPKKVVCIHNPVLTGLDGEGKMSSSKGNFIAVDDSPEEIRAKIKKAYCPAGVVEGNPIMEIAKYFLEYPLTIKRPEKFGGDLTVNSYEELESLFKNKELHPMRLKNAVAEELIKILEPIRKRL
Q: How did the “charging of p-IF” value ([1]; LB media, 1 mM p-IF) turn out when B1 was run?
A: efficiently charges p-iodo-L-phenylalanine (p-IF)

Q: And the “charging of Phe” value ([1]; overnight expression in LB media, presence or absence of 1 mM p-NF)?
A: efficiently charges Phe

Q: And the kcat (tRNACUA^Tyr/Opt; amino acid Phe)?
A: 0.14 ± 0.003 s^−1 × 10^−3

Q: And the Km (tRNACUA^Tyr/Opt; amino acid Phe, read-out: KM^ncAA)?
A: 160 ± 30 µM

Q: And the Relative catalytic efficiency (tRNACUA^Tyr/Opt; amino acid Phe)?
A: 2.3

Q: And the Km (tRNACUA^Tyr/Opt; ncAA p-IF)?
A: 2230 ± 460 µM

Q: What about the kcat (tRNACUA^Tyr/Opt; ncAA p-IF) of the same molecule?
A: 0.87 ± 0.11 s^−1 × 10^−3

Q: And the Relative catalytic efficiency (tRNACUA^Tyr/Opt; ncAA p-IF)?
A: 1.03

Q: What about the Km (tRNACUA^Tyr/Opt; ncAA p-NF) of the same molecule?
A: 3680 ± 290 µM

Q: What about the kcat (tRNACUA^Tyr/Opt; ncAA p-NF) of the same molecule?
A: 1.40 ± 0.05 s^−1 × 10^−3

Q: And the Relative catalytic efficiency (tRNACUA^Tyr/Opt; ncAA p-NF)?
A: 1.00

B2: p-IFRS: previously reported MjTyrRS variant evolved to charge p-IF; His160; SEQ ID NO: 19, 23 (protein)
chain: B1 chain with N160H
Q: How did the “selectivity of incorporation into sfGFP” value ([1]; LB media supplemented with both 1 mM p-NF and 1 mM p-IF) turn out when B2 was run?
A: selectively incorporates p-IF

B3: chPylRS: chimera of residues 1-149 of MbPylRS and residues 185-454 of MmPylRS; progenitor enzyme (SEQ ID NO: 5) (protein)
chain: MDKKPLDVLISATGLWMSRTGTLHKIKHYEVSRSKIYIEMACGDHLVVNNSRSCRTARAFRHHKYRKTCKRCRVSDEDINNFLTRSTEGKTSVKVKVVSAPKVKKAMPKSVSRAPKPLENPVSAKASTDTSRSVPSPAKSTPNSPVPTSASAPALTKSQTDRLEVLLNPKDEISLNSGKPFRELESELLSRRKKDLQQIYAEERENYLGKLEREITRFFVDRGFLEIKSPILIPLEYIERMGIDNDTELSKQIFRVDKNFCLRPMLAPNLYNYLRKLDRALPDPIKIFEIGPCYRKESDGKEHLEEFTMLNFCQMGSGCTRENLESIITDFLNHLGIDFKIVGDSCMVYGDTLDVMHGDLELSSAVVGPIPLDREWGIDKPWIGAGFGLERLLKVKHDFKNIKRAARSESYYNGISTNL
Q: B3 was tested. Which kcat (tRNA^Pyl; BocK substrate, Table 7) did it give?
A: 11.88 ± 0.18 s^−1 × 10^−3

Q: What about the Km (tRNA^Pyl; BocK substrate, Table 7, read-out: KM^ATP) of the same molecule?
A: 2.54 ± 0.16 µM

Q: What about the Km (tRNA^Pyl; BocK substrate, Table 7, read-out: KM^tRNA) of the same molecule?
A: 0.26 ± 0.07 µM

Q: What about the kcat (tRNA^Pyl; L-pyrrolysine substrate, Table 8) of the same molecule?
A: 33.24 ± 2.74 s^−1 × 10^−3

Q: What about the Km (tRNA^Pyl; L-pyrrolysine substrate, Table 8, read-out: KM^Pyl) of the same molecule?
A: 21.03 ± 0.15 µM

Q: And the Km (tRNA^Pyl; Table 7, read-out: KM^bocK)?
A: 1030 ± 50 µM

Q: And the Relative catalytic efficiency (tRNA^Pyl; kcat/KM^tRNA relative to chPylRS)?
A: 1
